In patent publication US20260193348A1 (ANTENGENE BIOLOGICS, published 2026):
Residue numbers refer to the chain shown, from its start. In names and notes the source's numbering stands.

T1: CD20 on DoHH2 cells (human, UniProt P11836 1-297)
T1 construct: whole, on cells; Endogenous CD20 on the human DoHH2 cell line; also called DoHH2 cells expressing CD20
T1 sequence (looked up): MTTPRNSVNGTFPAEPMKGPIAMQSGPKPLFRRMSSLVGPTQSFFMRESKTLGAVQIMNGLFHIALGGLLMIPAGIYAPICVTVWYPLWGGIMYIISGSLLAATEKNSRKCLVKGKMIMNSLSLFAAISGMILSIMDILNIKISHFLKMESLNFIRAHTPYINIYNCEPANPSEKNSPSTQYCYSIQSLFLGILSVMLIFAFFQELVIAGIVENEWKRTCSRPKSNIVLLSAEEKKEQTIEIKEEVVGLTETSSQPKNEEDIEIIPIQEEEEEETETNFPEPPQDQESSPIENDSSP

T2: CD19 on NALM6 cells, Raji cells and primary B cells (human, UniProt P15391 20-556)
T2 construct: whole, on cells; Endogenous CD19 on human cell lines / donor B cells; also called NALM6 cells expressing CD19; Raji cells expressing CD19
T2 sequence (looked up): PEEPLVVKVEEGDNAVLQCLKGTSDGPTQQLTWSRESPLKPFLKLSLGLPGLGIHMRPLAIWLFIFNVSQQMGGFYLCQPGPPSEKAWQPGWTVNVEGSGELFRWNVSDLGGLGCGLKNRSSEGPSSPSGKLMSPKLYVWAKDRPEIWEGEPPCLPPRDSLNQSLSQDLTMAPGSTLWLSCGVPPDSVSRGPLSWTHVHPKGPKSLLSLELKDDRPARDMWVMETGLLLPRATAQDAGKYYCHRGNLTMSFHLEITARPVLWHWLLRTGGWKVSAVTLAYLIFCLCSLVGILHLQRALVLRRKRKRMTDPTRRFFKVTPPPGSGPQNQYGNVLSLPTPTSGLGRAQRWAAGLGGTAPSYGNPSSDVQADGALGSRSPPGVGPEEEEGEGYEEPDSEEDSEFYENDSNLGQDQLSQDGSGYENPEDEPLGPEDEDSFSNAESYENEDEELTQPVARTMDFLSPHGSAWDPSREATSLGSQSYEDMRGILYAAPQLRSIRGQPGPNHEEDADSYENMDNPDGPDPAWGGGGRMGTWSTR

B1: ATG-Bis-40E9 (bispecific antibody)
VH: EVQLQQSGPELVKPGASVKMSCKASGYTFTSYVIHWVKQKTGQGLEWIGYFNPYNDGTKYNEEFKGKATLTSDKSSNTAYMELNSLTSDDSAVYFCARGGVRRYFDVWGAGTTVTVSS
VL: DIQMTQSPSSLSASLGERVSLTCRASQDIGSNLNWLQQEPDGTIKRLIYATFGLDSGVPKRFSGSRSGSDYSLTISSLESEDFVDYYCQQYASFPYTFGGGTKLEIK
scFv: EVQLQLSGPELVKPGASVKMSCKASGYTFSSYVIHWVKQKPGQGLEWIGYINPYNDVIKYNEKFKGKATLTSDKSSSTAYMELSSLTSEDSAVYYCARDSYYSYDGFAYWGQGTLVTVSAGGGGSGGGGSGGGGSGGGGSQIVLTQSPAIMSASPGEKVTMTCSASSSVSYMHWYQQKSGTSPKRWIYDTSKLASGVPARFSGSGSGTSYSLTISSMEAEDAATYYCQQWSSNPPTFGGGTKVEIK
notes: L234A/L235A; also called chimeric 2+1 bispecific antibody; parental antibody
B2: Bis-40E9-L2H3-Y101F.H (bispecific antibody)
VH: EVQLVQSGAEVKKPGASVKVSCKASGYTFTSYVIHWVRQAPGQGLEWMGYFNPYNDGTKYNEEFKGRVTLTSDKSTSTAYMELRSLRSDDTAVYYCARGGVRRYFDVWGQGTTVTVSS
VL: DIQMTQSPSSLSASVGDRVTITCRASQDIGSNLNWLQQKPGKAIKRLIYATFGLDSGVPSRFSGSRSGTDFTLTISSLQPEDFATYYCQQYASFPYTFGGGTKVEIK
scFv: EVQLVQSGAEVKKPGSSVKVSCKASGYTFSSYVIHWVRQAPGQCLEWMGYINPYNDVIKYNEKFKGRVTLTSDKSTSTAYMELSSLRSEDTAVYYCARDSFYSYDGFAYWGQGTLVTVSSGGGGSGGGGSGGGGSGGGGSEIVLTQSPDFQSVTPKEKVTITCSASSSVSYMHWYQQKPDQSPKRLIYDTSKLASGVPSRFSGSGSGTDFTLTINSLEAEDAATYYCQQWSSNPPTFGCGTKVEIK
notes: L234A/L235A
B3: ATG201-Y101F-200 (bispecific antibody, human IgG1, kappa, L234A L235A)
heavy 1: not shown
heavy 2: EVQLVESGGGLVQPGRSLRLSCAASGFTFNDYAMHWVRQAPGKGLEWVSTISWNSGSIGYADSVKGRFTISRDNAKKSLYLQMNSLRAEDTALYYCAKDIQYGNYYYGMDVWGQGTTVTVSSASTKGPSVFPLAPSSKSTSGGTAALGCLVKDYFPEPVTVSWNSGALTSGVHTFPAVLQSSGLYSLSSVVTVPSSSLGTQTYICNVNHKPSNTKVDKKVEPKSCGGGGSGGGGSEVQLVQSGAEVKKPGSSVKVSCKASGYTFSSYVIHWVRQAPGQCLEWMGYINPYNDVIKYNEKFKGRVTLTSDKSTSTAYMELSSLRSEDTAVYYCARDSFYSYDGFAYWGQGTLVTVSSGGGGSGGGGSGGGGSGGGGSEIVLTQSPDFQSVTPKEKVTITCSASSSVSYMHWYQQKPDQSPKRLIYDTSKLASGVPSRFSGSGSGTDFTLTINSLEAEDAATYYCQQWSSNPPTFGCGTKVEIKGGGGSGGGGSDKTHTCPPCPAPEAAGGPSVFLFPPKPKDTLMISRTPEVTCVVVDVSHEDPEVKFNWYVDGVEVHNAKTKPREEQYNSTYRVVSVLTVLHQDWLNGKEYKCKVSNKALPAPIEKTISKAKGQPREPQVCTLPPSREEMTKNQVSLSCAVKGFYPSDIAVEWESNGQPENNYKTTPPVLDSDGSFFLVSKLTVDKSRWQQGNVFSCSVMHEALHNHYTQKSLSLSPGK
light: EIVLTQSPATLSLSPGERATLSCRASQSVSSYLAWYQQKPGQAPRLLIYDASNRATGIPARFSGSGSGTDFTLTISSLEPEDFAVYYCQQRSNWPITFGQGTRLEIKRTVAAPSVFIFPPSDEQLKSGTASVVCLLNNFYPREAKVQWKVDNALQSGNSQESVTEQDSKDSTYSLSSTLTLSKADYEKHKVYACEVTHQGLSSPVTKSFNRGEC
notes: L234A/L235A; also called ATG201-Y101F-20O
B4: ATG201-N55S-200 (bispecific antibody, human IgG1, kappa, L234A L235A)
heavy 1: not shown
heavy 2: B3 heavy 2 with N290S, F336Y
light: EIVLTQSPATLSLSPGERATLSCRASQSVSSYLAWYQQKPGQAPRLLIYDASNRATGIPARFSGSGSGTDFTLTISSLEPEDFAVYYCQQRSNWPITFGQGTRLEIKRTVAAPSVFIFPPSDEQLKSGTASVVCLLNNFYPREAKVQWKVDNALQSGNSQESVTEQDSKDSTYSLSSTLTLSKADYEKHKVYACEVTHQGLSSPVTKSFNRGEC
notes: L234A/L235A; also called ATG201-N55S-20O
B5: ATG201-N55S-19B (bispecific antibody, human IgG1, kappa, L234A L235A)
heavy 1: not shown
heavy 2: QVQLQQSGAELVRPGSSVKISCKASGYAFSSYWMNWVKQRPGQGLEWIGQIWPGDGDTNYNGKFKGKATLTADESSSTAYMQLSSLASEDSAVYFCARRETTTVGRYYYAMDYWGQGTTVTVSSASTKGPSVFPLAPSSKSTSGGTAALGCLVKDYFPEPVTVSWNSGALTSGVHTFPAVLQSSGLYSLSSVVTVPSSSLGTQTYICNVNHKPSNTKVDKKVEPKSCGGGGSGGGGSEVQLVQSGAEVKKPGSSVKVSCKASGYTFSSYVIHWVRQAPGQCLEWMGYINPYSDVIKYNEKFKGRVTLTSDKSTSTAYMELSSLRSEDTAVYYCARDSYYSYDGFAYWGQGTLVTVSSGGGGSGGGGSGGGGSGGGGSEIVLTQSPDFQSVTPKEKVTITCSASSSVSYMHWYQQKPDQSPKRLIYDTSKLASGVPSRFSGSGSGTDFTLTINSLEAEDAATYYCQQWSSNPPTFGCGTKVEIKGGGGSGGGGSDKTHTCPPCPAPEAAGGPSVFLFPPKPKDTLMISRTPEVTCVVVDVSHEDPEVKFNWYVDGVEVHNAKTKPREEQYNSTYRVVSVLTVLHQDWLNGKEYKCKVSNKALPAPIEKTISKAKGQPREPQVCTLPPSREEMTKNQVSLSCAVKGFYPSDIAVEWESNGQPENNYKTTPPVLDSDGSFFLVSKLTVDKSRWQQGNVFSCSVMHEALHNHYTQKSLSLSPGK
light: not shown
notes: CD19xCD3 Fab-scFv-Fab: two C19B Fabs, anti-CD3 scFv 40E9-L2H3-N55S.H; L234A/L235A
B6: ATG201-Y101F-19B (bispecific antibody, human IgG1, kappa, L234A L235A)
heavy 1: not shown
heavy 2: B5 heavy 2 with S292N, Y338F
light: not shown
notes: CD19xCD3 Fab-scFv-Fab: two C19B Fabs, anti-CD3 scFv 40E9-L2H3-Y101F.H; L234A/L235A
B7: Bis-40E9-L2H3-Y54G.H (bispecific antibody)
VH: B2 VH
VL: B2 VL
scFv: B2 scFv with Y54G, F101Y
notes: L234A/L235A
B8: Bis-40E9-L2H3-D105R.H (bispecific antibody)
VH: B2 VH
VL: B2 VL
scFv: B2 scFv with F101Y, D105R
notes: L234A/L235A
B9: Bis-GD2-Fab2-scFv (bispecific antibody)
VH: QVQLVESGPGVVQPGRSLRISCAVSGFSVTNYGVHWVRQPPGKGLEWLGVIWAGGITNYNSAFMSRLTISKDNSKNTVYLQMNSLRAEDTAMYYCASRGGHYGYALDYWGQGTLVTVSS
VL: EIVMTQTPATLSVSAGERVTITCKASQSVSNDVTWYQQKPGQAPRLLIYSASNRYSGVPARFSGSGYGTEFTFTISSVQSEDFAVYFCQQDYSSFGQGTKLEIK
scFv: B1 scFv
notes: Two anti-GD2 Fabs (humanized 3F8) and one anti-CD3 scFv (40-C12-C10-E9) joined by (GGGGS)2 linkers to CH1 of one Fab and to CH2; L234A/L235A; also called Fab-scFv-Fab GD2xCD3 bispecific antibody
B10: Bis-GD2-Fab3 (bispecific antibody, V domains shown)
VH 1: B9 VH
VL 1: B9 VL
VH 2: EVQLQLSGPELVKPGASVKMSCKASGYTFSSYVIHWVKQKPGQGLEWIGYINPYNDVIKYNEKFKGKATLTSDKSSSTAYMELSSLTSEDSAVYYCARDSYYSYDGFAYWGQGTLVTVSA
VL 2: QIVLTQSPAIMSASPGEKVTMTCSASSSVSYMHWYQQKSGTSPKRWIYDTSKLASGVPARFSGSGSGTSYSLTISSMEAEDAATYYCQQWSSNPPTFGGGTKVEIK
notes: Fab3 format of WO2019154890A1: two anti-GD2 Fabs (humanized 3F8) and one anti-CD3 Fab (40-C12-C10-E9); also called Fab3 GD2xCD3 bispecific antibody

Tests used:
[1] = biological target: T3, GPRC5D on multiple myeloma cells (human, UniProt Q9NZD1 1-345); test: FACS on MM.1S cells
T3 construct: whole, on cells; Endogenous GPRC5D on multiple myeloma cell lines; also called G-protein coupled receptor family C group 5 member D; MM.1S, MOLP-8, L363, RPMI8226 cells

[2] = biological target: T4, CD3 on T cells / Jurkat cells (human, UniProt P07766 23-207; P04234 22-171; P09693 23-182); test: FACS on CD3+ T cells isolated from normal donors
T4 construct: whole, on cells; Native CD3 complex on CD3+ T cells isolated from normal donors or on Jurkat cells; also called human CD3; CD3+ T cells

[3] = biological target: T4, CD3 on T cells / Jurkat cells; test: FACS on Jurkat cells
[4] = biological target: T3, GPRC5D on multiple myeloma cells; test: FACS on multiple myeloma cell lines
[5] = biological target: T4, CD3 on T cells / Jurkat cells; test: FACS on Jurkat cells expressing CD3
CD20 on DoHH2 cells = biological target: T1, CD20 on DoHH2 cells; test: FACS on DoHH2 cells expressing CD20 (FIG. 45E)
[6] = biological target: T2, CD19 on NALM6 cells, Raji cells and …; test: FACS on NALM6 cells expressing CD19, another experiment (FIG. 45B)
Method: (§1) To evaluate the binding affinity of the generated bispecific antibodies to NALM6 cells, Raji cells, Primary B cells, DoHH2 cells, SU-DHL-1 cells and Jurkat cells, the NALM6 cells expressing CD19, Raji cells expressing CD19, Primary B cells, DoHH2 cells expressing CD20, SU-DHL-1 cells without expressing CD19 or CD20 and Jurkat cells expressing CD3 were stained by the test antibodies and the binding affinity was determined by FACS analysis. Primary B cells were isolated from healthy donors' PBMC by human B cell enrichment Kit (Stemcell #19054). The protocol of FACS analysis is described as follows: [0933] (a) The cells from each cell line above were harvested and centrifuged at 300 g for 5 min, and the supernatant were discarded. […] (b) The cells were washed 2 times with FACS buffer. [0935] (c) Step (a) was repeated. [0936] […] [0937] (e) Step (b) was repeated and the cells were resuspended with 100 μl/well diluted secondary antibody, and incubated at 4° C. for 45 minutes in the dark. [0938] (f) Step (b) was repeated and the cells were resuspended the cells with 150 μl/well FACS buffer and kept in dark for FACS analysis.

[7] = biological target: T2, CD19 on NALM6 cells, Raji cells and …; test: FACS on primary B cells from healthy donors' PBMC (FIG. 45D)
Method: as §1

[8] = biological target: T2, CD19 on NALM6 cells, Raji cells and …; test: FACS on Raji cells expressing CD19 (FIG. 45C)
Method: as §1

T3 sequence (Q9NZD1 whole entry): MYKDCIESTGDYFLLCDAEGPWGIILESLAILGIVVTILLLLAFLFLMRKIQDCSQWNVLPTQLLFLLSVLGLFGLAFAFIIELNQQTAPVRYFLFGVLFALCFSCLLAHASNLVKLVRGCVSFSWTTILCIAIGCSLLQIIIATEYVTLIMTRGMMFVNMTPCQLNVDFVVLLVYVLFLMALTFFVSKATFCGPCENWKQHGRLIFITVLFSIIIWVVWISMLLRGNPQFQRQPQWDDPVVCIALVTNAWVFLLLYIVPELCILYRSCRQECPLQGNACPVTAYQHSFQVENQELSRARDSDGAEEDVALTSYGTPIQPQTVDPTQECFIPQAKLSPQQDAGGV
T4 sequence (P07766 23-207, chain 1 of 3): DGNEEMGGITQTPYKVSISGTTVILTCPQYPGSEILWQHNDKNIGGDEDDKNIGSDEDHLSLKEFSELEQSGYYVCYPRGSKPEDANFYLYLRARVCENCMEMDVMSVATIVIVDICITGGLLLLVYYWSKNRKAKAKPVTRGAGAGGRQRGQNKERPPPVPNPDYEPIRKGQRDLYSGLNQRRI
T4 sequence (P04234 22-171, chain 2 of 3): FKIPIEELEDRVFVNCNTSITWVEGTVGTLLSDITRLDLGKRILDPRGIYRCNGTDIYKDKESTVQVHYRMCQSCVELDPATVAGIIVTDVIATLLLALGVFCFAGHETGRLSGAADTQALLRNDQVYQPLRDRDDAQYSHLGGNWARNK
T4 sequence (P09693 23-182, chain 3 of 3): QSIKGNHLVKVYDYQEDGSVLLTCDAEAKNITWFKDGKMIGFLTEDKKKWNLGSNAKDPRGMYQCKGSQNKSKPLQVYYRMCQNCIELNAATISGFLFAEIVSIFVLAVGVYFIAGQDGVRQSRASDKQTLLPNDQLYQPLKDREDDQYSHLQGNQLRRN

Row | Binder | binding result [2] | binding result [3] | binding result [4] | binding result [5] | other results
1 | B1 | binds |  |  |  | binding result [1]: binds
2 | B2 |  | binds | binds |  | 
3 | B3 |  |  |  | binds | EC50 (CD20 on DoHH2 cells): 7550 pM
4 | B4 |  |  |  | binds | EC50 (CD20 on DoHH2 cells): 4890 pM
5 | B5 |  |  |  | binds | EC50 [6]: 513 pM; EC50 [7]: 442 pM; EC50 [8]: 1110 pM
6 | B6 |  |  |  | binds | EC50 [6]: 508 pM; EC50 [7]: 359 pM; EC50 [8]: 1110 pM
7 | B7 |  | binds | binds |  | 
8 | B8 |  | binds | binds |  | 
9 | B9 | binds |  |  |  | 
10 | B10 | binds |  |  |  | 
